According to US20240279328A1 (Johns Hopkins, published 2024):
Read-outs that look alike come from different tables or passages of the source.

Columns and labels:
human Interleukin-2 [1] = biological target: T1, human Interleukin-2 (human, UniProt P60568 21-153, biotinylated (site not stated) when immobilised on streptavidin biosensors; soluble in the competition studies); test: cell-based or functional assay
human Interleukin-2 [2] = biological target: T1, human Interleukin-2; test: BLI, kinetic KD, immobilised human IL-2, soluble antibody
human Interleukin-2 [3] = biological target: T1, human Interleukin-2; test: BLI (Octet), immobilised human IL-2, soluble antibody, 1:1 Langmuir fit
human Interleukin-2 [4] = biological target: T1, human Interleukin-2; test: BLI, equilibrium KD from titration curve, immobilised human IL-2, soluble antibody; Equilibrium KD, not kinetic KD
human Interleukin-2 [5] = biological target: T1, human Interleukin-2; test: BLI, equilibrium KD from titration curve, immobilised human IL-2, soluble antibody
human Interleukin-2 [6] = biological target: T1, human Interleukin-2; test: cell-based or functional assay; remark: listed apart in the source
human Interleukin-2 [7] = biological target: T1, human Interleukin-2; test: BLI, kinetic KD, immobilised human IL-2, soluble antibody; remark: listed apart in the source
Method: (§1) Biolayer interferometry binding studies: Binding studies were performed via bio-layer interferometry using an OctetRED96® biolayer interferometry instrument (Sartorius). […] Once baseline measurements were collected in PBSA, binding kinetics were measured by submerging the biosensors in wells containing serial dilutions of the appropriate analytes for 300 s (association) followed by submerging the biosensor in wells containing only PBSA for 500 s (dissociation). […] An irrelevant protein (the monoclonal antibody ipilimumab) was used as a control for nonspecific binding. Tips were regenerated in 0.1 M glycine pH 2.7. Data was processed and kinetic parameters were calculated using the Octet® Data Analysis software version 7.1 (Sartorius), assuming a 1:1 Langmuir binding model. Equilibrium binding was determined by total response measured after 295 s. Equilibrium titration curve fitting and KD value determination was implemented using GraphPad Prism, assuming all binding interactions to be first order.

human Interleukin-2 [8] = biological target: T1, human Interleukin-2; test: BLI, equilibrium KD from titration curve, immobilised human IL-2, soluble antibody; remark: listed apart in the source
Method: as §1

human Interleukin-2 [9] = biological target: T1, human Interleukin-2; test: BLI (Octet), biotinylated human IL-2 on streptavidin sensors, soluble antibody, 1:1 Langmuir fit
Method: as §1

human Interleukin-2 [10] = biological target: T1, human Interleukin-2; test: BLI (Octet), biotinylated human IL-2 immobilised on streptavidin tip, soluble antibody titrated, normalized equilibrium response
Method: Error bars represent s.d.
as §1, with “model.” for “model. Equilibrium binding was determined by total response measured after 295 s. Equilibrium titration curve fitting and KD value determination was implemented using GraphPad Prism, assuming all binding interactions to be first order.”

T1 sequence (P60568 21-153 limits assumed): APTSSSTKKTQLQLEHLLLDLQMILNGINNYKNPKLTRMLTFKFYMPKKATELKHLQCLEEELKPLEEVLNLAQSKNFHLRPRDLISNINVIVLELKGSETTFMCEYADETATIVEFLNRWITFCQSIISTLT

Row | Binder | YT+ EC50 (STAT5 phosphorylation, IL-2Rα+ YT-1 cells) (human Interleukin-2 [1]) [nM] | YT- EC50 (STAT5 phosphorylation, IL-2Rα- YT-1 cells) (human Interleukin-2 [1]) [nM] | Kd (human Interleukin-2 [2]) [nM] | koff (human Interleukin-2 [3]) [s⁻¹] | kon (human Interleukin-2 [3]) [M⁻¹ s⁻¹] | Kd (human Interleukin-2 [4]) [nM] | Kd (human Interleukin-2 [5]) [nM] | YT+ EC50 (STAT5 phosphorylation, IL-2Rα+ YT-1 cells) (human Interleukin-2 [6]) [nM] | YT- EC50 (STAT5 phosphorylation, IL-2Rα- YT-1 cells) (human Interleukin-2 [6]) [nM] | Kd (human Interleukin-2 [7]) [nM] | Kd (human Interleukin-2 [8]) [nM] | koff (human Interleukin-2 [9]) [s⁻¹] | kon (human Interleukin-2 [9]) [M⁻¹ s⁻¹] | EC50 (read off the curve) (human Interleukin-2 [10]) [nM]
1 | F5111 antibody (wild type anti-hIL2 antibody, human IgG1, lambda light chain) (antibody, Expressed in CHO cells, purified on protein G; also called F5111 WT; parent F5111 mAb) heavy: not shown light: GSNFMLTQPHSVSESPGKTVTISCTRSSGSIASNYVQWYQQRPGSSPTTVIYEDNQRPSGVPDRFSGSIDSSSNSASLTISGLKTEDEADYYCQSYDSSNVVFGGGTKLTVLGQPKAAPSVTLFPPSSEELQANKATLVCLISDFYPGAVTVAWKADSSPVKAGVETTTPSKQSNNKYAASSYLSLTPEQWKSHRSYSCQVTHEGSTVEKTVAPTECS | 0.15 | 0.66 | 0.63 | 0.00022 | 360000 | 6.5 |  |  |  |  |  |  |  | 
2 | F5111 M5 glycovariant (N-glycosylation site inserted in the light chain) (antibody, human IgG1, lambda, V domains shown, inserted N-linked glycosylation site (position shown only in a drawing)) VH: QLQLQESGPGLVKPSQTLSLTCTVSGGSISSGGYYWSWIRQHPGKGLEWIGYIYYSGSTYYNPSLKSRVTISVDTSKNQFSLKLSSVTAADTAVYYCARTPTVTGDWFDPWGRGTLVTVSS VL: SNFMLTQPHSVSESPGKTVTISCTRSSGSIASNYVQWYQQRPGSSPTTVIYEDNQRPSGVPDRFSGSIDNSSNSASLTISGLKTEDEADYYCQSYDSSNVVFGGGTKLTVLG | 0.039 | 0.79 | 0.82 | 0.00023 | 280000 |  | 9.8 |  |  |  |  |  |  | 
3 | F5111 M4 glycovariant (N-glycosylation site inserted in the light chain) (antibody, human IgG1, lambda, V domains shown, inserted N-linked glycosylation site (position shown only in a drawing)) VH: QLQLQESGPGLVKPSQTLSLTCTVSGGSISSGGYYWSWIRQHPGKGLEWIGYIYYSGSTYYNPSLKSRVTISVDTSKNQFSLKLSSVTAADTAVYYCARTPTVTGDWFDPWGRGTLVTVSS VL: SNFMLTQPHSVSESPGKTVTISCTRSSGSIASNYVQWYQQRPGSSPTTVIYEDNQRPSGVPDRFSGSINSSSNSASLTISGLKTEDEADYYCQSYDSSNVVFGGGTKLTVLG | 0.17 | 0.52 | 0.5 | 0.00014 | 270000 |  | 9.7 |  |  |  |  |  |  | 
4 | F5111 M1 glycovariant (N-glycosylation site inserted in the heavy chain) (antibody, human IgG1, lambda, inserted N-linked glycosylation site (position shown only in a drawing)) heavy: not shown light: GSNFMLTQPHSVSESPGKTVTISCTRSSGSIASNYVQWYQQRPGSSPTTVIYEDNQRPSGVPDRFSGSIDSSSNSASLTISGLKTEDEADYYCQSYDSSNVVFGGGTKLTVLGQPKAAPSVTLFPPSSEELQANKATLVCLISDFYPGAVTVAWKADSSPVKAGVETTTPSKQSNNKYAASSYLSLTPEQWKSHRSYSCQVTHEGSTVEKTVAPTECS | 0.043 | 0.89 | 1.1 | 0.00038 | 330000 |  | 7.8 |  |  |  |  |  |  | 
5 | F5111 M2 glycovariant (N-glycosylation site inserted in the heavy chain) (antibody, human IgG1, lambda, V domains shown, inserted N-linked glycosylation site (position shown only in a drawing)) VH: QLQLQESGPGLVKPSQTLSLTCTVSGGSISSGGYYWSWIRQHPGKGLEWIGYIYYSGSTYYNPSLKSRVTISVDTSKNQFSLKLSNVTAADTAVYYCARTPTVTGDWFDPWGRGTLVTVSS VL: SNFMLTQPHSVSESPGKTVTISCTRSSGSIASNYVQWYQQRPGSSPTTVIYEDNQRPSGVPDRFSGSIDSSSNSASLTISGLKTEDEADYYCQSYDSSNVVFGGGTKLTVLG | 0.098 | 0.44 | 0.76 | 0.00021 | 270000 |  | 9.6 |  |  |  |  |  |  | 
6 | F5111 M3 glycovariant (N-glycosylation site inserted in the heavy chain) (antibody, human IgG1, lambda, inserted N-linked glycosylation site (position shown only in a drawing)) heavy: not shown light: GSNFMLTQPHSVSESPGKTVTISCTRSSGSIASNYVQWYQQRPGSSPTTVIYEDNQRPSGVPDRFSGSIDSSSNSASLTISGLKTEDEADYYCQSYDSSNVVFGGGTKLTVLGQPKAAPSVTLFPPSSEELQANKATLVCLISDFYPGAVTVAWKADSSPVKAGVETTTPSKQSNNKYAASSYLSLTPEQWKSHRSYSCQVTHEGSTVEKTVAPTECS | 0.089 | 0.39 | 0.55 | 0.00017 | 310000 |  | 8.3 |  |  |  |  |  |  | 
7 | 602 antibody (wild type anti-human IL-2 antibody) (antibody, mouse IgG2a, kappa) heavy: DEVQLQESGPGLVAPSQSLSITCTVSGFSLTNYDISWIRQPPGKGLEWLGVIWTGGGTNYNSGFMSRLSITKDNSKSQVFLKMNSLQTDDTAIYYCVRQGRTPYWGQGTLVTVSAAKTTAPSVYPLAPVCGDTTGSSVTLGCLVKGYFPEPVTLTWNSGSLSSGVHTFPAVLQSDLYTLSSSVTVTSSTWPSQSITCNVAHPASSTKVDKKIEPRGPTIKPCPPCKCPAPNLLGGPSVFIFPPKIKDVLMISLSPIVTCVVVDVSEDDPDVQISWFVNNVEVHTAQTQTHREDYNSTLRVVSALPIQHQDWMSGKEFKCKVNNKDLPAPIERTISKPKGSVRAPQVYVLPPPEEEMTKKQVTLTCMVTDFMPEDIYVEWTNNGKTELNYKNTEPVLDSDGSYFMYSKLRVEKKNWVERNSYSCSVVHEGLHNHHTTKSFSRTPGK light: AGSDIQVTQSPSSLSVSLGDRVTITCKASKDIYNRLAWYQQKPGNAPRLLISGATSLETGVPSRFSGSGSGKDYTLTITSLQTEDVATYYCQQFWGTPYTFGGGTKLEIKRADAAPTVSIFPPSSEQLTSGGASVVCFLNNFYPKDINVKWKIDGSERQNGVLNSWTDQDSKDSTYSMSSTLTLTKDEYERHNSYTCEATHKTSTSPIVKSFNRNEC |  |  |  |  |  |  |  | 0.18 | 5.2 | 2.5 | 3.2 | 0.0019 | 780000 | ~3
8 | 602 M8 glycovariant (N-glycosylation site inserted in the light chain) (antibody, mouse IgG2a, kappa, inserted N-linked glycosylation site (position shown only in a drawing), Two amino acids changed in the light chain to create a new N-glycosylation site; also called Mutant 8) heavy: DEVQLQESGPGLVAPSQSLSITCTVSGFSLTNYDISWIRQPPGKGLEWLGVIWTGGGTNYNSGFMSRLSITKDNSKSQVFLKMNSLQTDDTAIYYCVRQGRTPYWGQGTLVTVSAAKTTAPSVYPLAPVCGDTTGSSVTLGCLVKGYFPEPVTLTWNSGSLSSGVHTFPAVLQSDLYTLSSSVTVTSSTWPSQSITCNVAHPASSTKVDKKIEPRGPTIKPCPPCKCPAPNLLGGPSVFIFPPKIKDVLMISLSPIVTCVVVDVSEDDPDVQISWFVNNVEVHTAQTQTHREDYNSTLRVVSALPIQHQDWMSGKEFKCKVNNKDLPAPIERTISKPKGSVRAPQVYVLPPPEEEMTKKQVTLTCMVTDFMPEDIYVEWTNNGKTELNYKNTEPVLDSDGSYFMYSKLRVEKKNWVERNSYSCSVVHEGLHNHHTTKSFSRTPGK light: AGSNITVTQSPSSLSVSLGDRVTITCKASKDIYNRLAWYQQKPGNAPRLLISGATSLETGVPSRFSGSGSGKDYTLTITSLQTEDVATYYCQQFWGTPYTFGGGTKLEIKRADAAPTVSIFPPSSEQLTSGGASVVCFLNNFYPKDINVKWKIDGSERQNGVLNSWTDQDSKDSTYSMSSTLTLTKDEYERHNSYTCEATHKTSTSPIVKSFNRNEC |  |  |  |  |  |  |  | 0.17 | 4.5 | 1.8 | 2.3 | 0.0018 | 1e+06 | 
9 | 602 M1 glycovariant (N-glycosylation site inserted in the heavy chain) (antibody, mouse IgG2a, kappa, inserted N-linked glycosylation site (position shown only in a drawing), One amino acid changed in the heavy chain to create a new N-glycosylation site; also called Mutant 1) heavy: DEVQLQESGPGLVAPSQSLSITCTVSGFSLTNYDISWIRQPPGKGLEWLGVIWTGGGTNYNSGFMSRLSITKDNSKSQVFLKMNSLQTDDTAIYYCVRQGRTPYWGNGTLVTVSAAKTTAPSVYPLAPVCGDTTGSSVTLGCLVKGYFPEPVTLTWNSGSLSSGVHTFPAVLQSDLYTLSSSVTVTSSTWPSQSITCNVAHPASSTKVDKKIEPRGPTIKPCPPCKCPAPNLLGGPSVFIFPPKIKDVLMISLSPIVTCVVVDVSEDDPDVQISWFVNNVEVHTAQTQTHREDYNSTLRVVSALPIQHQDWMSGKEFKCKVNNKDLPAPIERTISKPKGSVRAPQVYVLPPPEEEMTKKQVTLTCMVTDFMPEDIYVEWTNNGKTELNYKNTEPVLDSDGSYFMYSKLRVEKKNWVERNSYSCSVVHEGLHNHHTTKSFSRTPGK light: AGSDIQVTQSPSSLSVSLGDRVTITCKASKDIYNRLAWYQQKPGNAPRLLISGATSLETGVPSRFSGSGSGKDYTLTITSLQTEDVATYYCQQFWGTPYTFGGGTKLEIKRADAAPTVSIFPPSSEQLTSGGASVVCFLNNFYPKDINVKWKIDGSERQNGVLNSWTDQDSKDSTYSMSSTLTLTKDEYERHNSYTCEATHKTSTSPIVKSFNRNEC |  |  |  |  |  |  |  | 0.16 | 6 | 2.5 | 3.2 | 0.002 | 790000 | 
